Measurements as given in article PMC2820081.

Target: endogenous optineurin (rat (endogenous in RGC5)) (UniProt Q8R5M4)
Test: native gel or EMSA; native blue gel electrophoresis (NativePAGE Novex Bis-Tris gel) of lysates in IP buffer from RGC5 cells or RGC5 cells transfected with pTarget-FLAG-OPTN, non-reducing; Western blot with anti-C-terminal optineurin or anti-FLAG

endogenous optineurin (from UniProt Q8R5M4 1-585) (natural protein)
stoichiometry N: 6
